# Measured values published in paper PMC3314626, “Crystal Structures of the Tetratricopeptide Repeat Domains of Kinesin Light Chains: Insight into Cargo Recognition Mechanisms” (PLoS ONE, 2012).
# Biological target: KLC1 TPR domain (kinesin light chain 1 tetratricopeptide repeat domain) (human) (UniProt Q07866)
# Assay: ITC; protein-protein: 15 uM KLC1-TPR and 160 uM ALC1 protein; 25 C; 30 mM HEPES 7.4, 200 mM NaCl, 0.5 mM TCEP; one-site binding model
substance,measurement,value
cytosolic domain of ALC1 protein (alcadein-1) (domain or fragment),Kd,2400 nM
same,stoichiometry N,0.85
